Results from article PMC6765224, “Stereospecificity control in aminoacyl-tRNA-synthetases: new evidence of D-amino acids activation and editing” (Nucleic Acids Research, 2019).

Assays:
Test in all cases: purified protein
purified protein [1] = substrate: C[C@H](N)C(=O)O; conditions: amino acid activation, pH 7.5
purified protein [2] = substrate: C[C@@H](N)C(=O)O; conditions: amino acid activation, pH 7.5
purified protein [3] = substrate: N[C@@H](CO)C(=O)O; conditions: amino acid activation
purified protein [4] = substrate: NCC(=O)O; type: biochemical, Thermus thermophilus; conditions: amino acid activation, 4 mM ATP, 1 mM PPi, 10 mM MgCl2, pH 7.5, 60 °C
purified protein [5] = substrate: N[C@@H](Cc1ccc(O)cc1)C(=O)O; type: biochemical, Thermus thermophilus; conditions: amino acid activation, 4 mM ATP, 1 mM PPi, 10 mM MgCl2, pH 7.5, 60 °C
purified protein [6] = substrate: N[C@H](Cc1ccc(O)cc1)C(=O)O; type: biochemical, Thermus thermophilus; conditions: amino acid activation, 4 mM ATP, 1 mM PPi, 10 mM MgCl2, pH 7.5, 60 °C
[7] = 4 mM ATP, 1 mM PPi, 10 mM MgCl2, pH 7.5, 60 °C, 60.0 °C
[8] = 4 mM ATP, 1 mM PPi, 10 mM MgCl2, pH 7.5, 60 °C, pH 7.5, 60.0 °C
[9] = editing-deficient mutant, 37.0 °C

B1: AlaRSTT (Thermus thermophilus alanyl-tRNA-synthetase) (Thermus thermophilus HB27) (protein)
chain: MRTAEIREKFLSFFEGKGHLRLPSFSLIPEDDPSLLFTSAGMAPLKPYFLGAKPIFGGREWRRVTTCQECLRVGDIENVGRTSRHNTYFEMLGNFSFGDYFKKEAILWAWEFLTEHLRLDPGRLWVTVFEDDDEAYEIWRDLVGVPEERIGRFGEDENYWPGGAITHGPNGPSGPCSEIFYDRGPAYGTPDETGPNTGSGDRFVEIWNLVFTQYDRQGPIPGPGILKPLPQKNIDTGMGLYRVAAILQDVEDFYRTDTFFPIIQEVARMSGRPYEGKTSVSHRVIADHVRAVVAALSDGATFSNTGRGYVIRRLLRRALRHGYLLGLSDPFLHRLAPLVAELLGDFYPEMRENLPAVEKQIRLEEERFLETLEGGLKRLDALLSGLKPGEVLPGKEAFRLYDTYGFPLDLTVEIAAERGYGVDTEGFQKAMEEQQSRSRAAMAFEREIFKKGAQVLEELYAERGATEFLGYNALEAEAEVLALLAGDQSLLEAGPGTEVQVVLDKTPFYAEGGGQIGDFGLLEWPGGRARVETTRKTERGIFLHKARVEEGVLRVGERVRAVVDPRRRDTERNHTATHLLHAALRAVLGPHVRQAGSLVAPDRLRFDFTHPEPLKPEELERVELLVNRWIMADFPVTWRYMPLEEARKEGAMALFGEKYGEVVRVVRVEGSPLEGLESKELCGGCHVRRTGEIGAFLIRSEEAVSAGVRRIEAVTGEEAIRFARGSLNRLKALAERLEVGEAALEERLEKLLAELKEKEREVESLKARLVQAALGGGGGASLEEKGGLRWTVAELPGLDAKALRQAADDLVARGADVALVLSGGQAVLKLSPKAQGMGLEAGALFRALAEKAGGRGGGKGALAQGGGLDPRKAREALPGLLP
notes: His-tagged, pET28b, expressed in E. coli BL21(DE3)Star; wild type
Km (purified protein [1]; [7]): 139 ± 12 µM
kcat (purified protein [1]; [7]): 7.88 s⁻¹
kcat/Km (purified protein [1]; [7]): 56000 M⁻¹ s⁻¹
Km (purified protein [2]; [7]): 2190 ± 500 µM
kcat (purified protein [2]; [7]): 0.21 s⁻¹
kcat/Km (purified protein [2]; [7]): 120 M⁻¹ s⁻¹
Km (purified protein [3]; [8]): 10000 ± 2000 µM
kcat (purified protein [3]; [8]): 2.3 s⁻¹
kcat/Km (purified protein [3]; [8]): 236 M⁻¹ s⁻¹
Km (purified protein [4]): 22000 ± 8000 µM
kcat (purified protein [4]): 6.5 ± 1.6 s⁻¹
kcat/Km (purified protein [4]): 290 M⁻¹ s⁻¹

B2: TyrRSTT (T. thermophilus tyrosyl-tRNA-synthetase) (Thermus thermophilus HB27) (protein)
chain: MAGTGHTPEEALALLKRGAEEIVPEEELLAKLKEGRPLTVKLGADPTRPDLHLGHAVVLRKMRQFQELGHKVVLIIGDFTGMIGDPSGRSKTRPPLTLEETRENAKTYVAQAGKILRQEPHLFELRYNSEWLEGLTFKEVVRLTSLMTVAQMLEREDFKKRYEAGIPISLHELLYPFAQAYDSVAIRADVEMGGTDQRFNLLVGREVQRAYGQSPQVCFLMPLLVGLDGREKMSKSLDNYIGLTEPPEAMFKKLMRVPDPLLPSYFRLLTDLEEEEIEALLKAGPVPAHRVLARLLTAAYALPQIPPRIDRAFYESLGYAWEAFGRDKEAGPEEVRRAEARYDEVAKGGIPEEIPEVTIPASELKEGRIWVARLFTLAGLTPSNAEARRLIQNRGLRLDGEVLTDPMLQVDLSRPRILQRGKDRFVRVRLSD
notes: wild type
Km (purified protein [5]): 9 ± 2 µM
kcat (purified protein [5]): 17.4 ± 3.9 s⁻¹
kcat/Km (purified protein [5]): 1.93e+06 M⁻¹ s⁻¹
Km (purified protein [6]): 27.6 ± 7.5 µM
kcat (purified protein [6]): 2.2 ± 0.65 s⁻¹
kcat/Km (purified protein [6]): 80000 M⁻¹ s⁻¹

B3: E. coli C666A AlaRS (Escherichia coli K-12; C666A) (protein)
chain: SKSTAEIRQAFLDFFHSKGHQVVASSSLVPHNDPTLLFTNAGMNQFKDVFLGLDKRNYSRATTSQRCVRAGGKHNDLENVGYTARHHTFFEMLGNFSFGDYFKHDAIQFAWELLTSEKWFALPKERLWVTVYESDDEAYEIWEKEVGIPRERIIRIGDNKGAPYASDNFWQMGDTGPCGPCTEIFYDHGDHIWGGPPGSPEEDGDRYIEIWNIVFMQFNRQADGTMEPLPKPSVDTGMGLERIAAVLQHVNSNYDIDLFRTLIQAVAKVTGATDLSNKSLRVIADHIRSCAFLIADGVMPSNENRGYVLRRIIRRAVRHGNMLGAKETFFYKLVGPLIDVMGSAGEDLKRQQAQVEQVLKTEEEQFARTLERGLALLDEELAKLSGDTLDGETAFRLYDTYGFPVDLTADVCRERNIKVDEAGFEAAMEEQRRRAREASGFGADYNAMIRVDSASEFKGYDHLELNGKVTALFVDGKAVDAINAGQEAVVVLDQTPFYAESGGQVGDKGELKGANFSFAVEDTQKYGQAIGHIGKLAAGSLKVGDAVQADVDEARRARIRLNHSATHLMHAALRQVLGTHVSQKGSLVNDKVLRFDFSHNEAMKPEEIRAVEDLVNTQIRRNLPIETNIMDLEAAKAKGAMALFGEKYDERVRVLSMGDFSTELAGGTHASRTGDIGLFRIISESGTAAGVRRIEAVTGEGAIATVHADSDRLSEVAHLLKGDSNNLADKVRSVLERTRQLEKELQQLKEQAAAQESANLSSKAIDVNGVKLLVSELSGVEPKMLRTMVDDLKNQLGSTIIVLATVVEGKVSLIAGVSKDVTDRVKAGELIGMVAQQVGGKGGGRPDMAQAGGTDAAALPAALASVKGWVSAKLQ
Km (purified protein [1]; [9]): 304 ± 43 µM
kcat (purified protein [1]; [9]): 0.18 s⁻¹
kcat/Km (purified protein [1]; [9]): 600 M⁻¹ s⁻¹
Km (purified protein [2]; [9]): 60000 ± 20000 µM
kcat (purified protein [2]; [9]): 0.1 s⁻¹
kcat/Km (purified protein [2]; [9]): 1.8 M⁻¹ s⁻¹
Km (purified protein [3]; editing-deficient mutant): 27000 ± 6000 µM
kcat (purified protein [3]; editing-deficient mutant): 0.147 ± 0.04 s⁻¹
